In patent US9943572B2, “Synergistic glycocalyx treatment compositions and methods” (Microvascular Health Solutions, LLC, priority 2015, dated 2018):

Assays:
[1] = Catalase administered to mice, concentration in blood vessels; type: in vivo; settings: oral and/or intravenous administration
Description: Thus, in addition to (naturally) produced […], which may be produced and secreted into the blood stream, exogenous or administered catalase can be absorbed into the blood stream and be available for oxidant scavenging at or adjacent to the endothelial glycocalyx (and SOD bound thereto). Accordingly, introduction and/or administration of catalase can also provide antioxidant activity in blood vessels and/or at the endothelial glycocalyx.

[2] = system: cultured endothelial cells; assay: Labeled glucosamine administered to cultured endothelial cells; type: cell-based
Description: Indeed, glucosamine can increase synthesis of two main constituents of the endothelial glycocalyx, namely heparan sulfate and hyaluronan. […] Thus, the addition and/or administration of glucosamine can support endothelial glycocalyx production by providing a (necessary and/or rate-limiting) component in the synthesis thereof. Accordingly, glucosamine can be or comprise a molecular precursor of endothelial glycocalyx.

endothelial glycocalyx = assay: Exogenous labeled SOD administered to mice, localization; type: in vivo; settings: orally and/or intravenously
Description: By so doing, the local concentration of SOD at the endothelial glycocalyx is increased, providing added or enhanced (site-directed) protection against oxygen radicals at the endothelial glycocalyx. Thus, in addition to (naturally) produced SOD, which may be synthesized and bound to the endothelium, exogenous or administered SOD can (directly) associate with (bind to) endothelial glycocalyx. Accordingly, introduction and/or administration of SOD can provide site-directed antioxidant activity at the endothelial glycocalyx.

catalase
catalase concentrations in blood vessels [1]: increases catalase concentrations in blood vessels

N[C@H]1C(O)O[C@H](CO)[C@@H](O)[C@@H]1O (stereo partly drawn) [glucosamine, Glucosamine]
incorporation of labeled glucosamine [2]: is incorporated in the glycocalyx

Superoxide dismutase [SOD]
localization of exogenous labeled SOD (endothelial glycocalyx): co-localizes (binds (directly) to) the endothelial glycocalyx
